According to the supplement of paper PMC9732359:
± gives the uncertainty stated by the source.

experiment: protein stability index of a GFP-peptide fusion (yeast GPS) (PSI 1-4); higher = more stable; sorted into four equal gates, so the index is relative within each strain; conditions: ubr1∆
In short: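 The protein stability index combines read frequencies across sorting gates, each weighted by its gate number and then summed. To obtain those frequencies, a pooled yeast library of GFP fusions to tiled 17-residue yeast protein peptides, on a plasmid also expressing Cherry, was grown to mid-log phase in leucine-free medium. The cells were sorted into four equal gates by GFP/Cherry ratio before plasmid amplification by PCR and Illumina sequencing.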

Sequence | protein stability index
LLENSVDKNFDKLELYV [MTW1] | 2.97 ± 0.048
LLEQDTSTEKLYKLNDK [PRE9] | 2.91 ± 0.056
LLFFNFSHSLTTILSFS [NUT1] | 1.37 ± 0.033
LLGNCYSLRLINKEIFH [SRB8] | 1.36 ± 0.073
LLHEMTQTYMQMIELNR [GRR1] | 1.68 ± 0.048
LLNRIPRMYHIGLRQFQ [POP1] | 1.3 ± 0.11
LLNTDHTLDPSLLESGS [RPO21] | 3.17 ± 0.059
LLPFVKGNVGFVFTNEP [RPP0] | 1.84 ± 0.17
LLPQWDDDQIESLKKSP [ARP9] | 3.12 ± 0.052
LLQSSIINKLIHIQSKE [POP3] | 2.28 ± 0.048
LLQVNKTFCEDPFSDVD [GRR1] | 3.28 ± 0.036
LLRRLKKDVEKELPDKV [SNF2] | 3.38 ± 0.12
LLSFVLGVVFGRGGSGW [YML031W/NDC1] | 2.37 ± 0.096
LLSLINSTHLLPLQPIE [SNF12] | 2.4 ± 0.04
LLTAKHGMTLRESFEDN [RPO21] | 1.55 ± 0.092
LLTVTPGPRLLYENIAS [RPN10] | 1.82 ± 0.035
LLVDQKQLNSLRRSGQI [SMD1] | 2.72 ± 0.051
LLVGLIKTFYWLEQFLS [NUT1] | 1.24 ± 0.074
LLYLRLKNIYVSADDFV [PRP8] | 1.16 ± 0.046
LMISPKDEETTEKARLI [RRI2] | 3.04 ± 0.14
LMKCCHEAYSIIEKITD [RRP45] | 2.52 ± 0.18
LMMVEKVPDSTYDMVGG [RPT6] | 3.01 ± 0.068
LMRSCFYLMVSSLSFGP [YJL039C/NUP192] | 1.19 ± 0.033
LMRTFLYTLAQETEGTN [SIR3] | 2.35 ± 0.11
LMYSITFHHHGRQTVLI [SRB2] | 3.12 ± 0.039

Sequence | protein stability index
LNDLVESSFIEIDDTEA [BRR2] | 2.25 ± 0.029
LNDMNTEISGLKNVNKR [SMC3] | 3.12 ± 0.045
LNDRKVLFAAYKVEHPF [RPB11] | 2.27 ± 0.051
LNDTTEKSKALESEIAS [SMC2] | 3.18 ± 0.086
LNDVVSFLFSAIPLQQV [SWI1] | 1.75 ± 0.026
LNECLKTIQINNEKVVQ [YML031W/NDC1] | 1.11 ± 0.1
LNEKFQELRKKVNPNIM [SMC2] | 2.81 ± 0.15
LNELETLIKKKQDEKKS [SMC2] | 2.91 ± 0.055
LNELHPTLPTNHNKTKL [PRP8] | 2.72 ± 0.039
LNESRSQHKKILEELDF [SMC3] | 3.06 ± 0.082
LNITTVFSHAQTAVTCE [RPS27A] | 2.09 ± 0.052
LNLEQVTLNKYCSGNIY [YJL039C/NUP192] | 2.39 ± 0.046
LNLTGPKVPEDIYKSHL [RPN1] | 2.9 ± 0.26
LNRFNFQNTNTRSALKL [QCR2] | 2.62 ± 0.074
LNRSHFATTKAECISLI [ECM29] | 1.66 ± 0.038
LNSFAFELCSLGDKELW [YJR042W/NUP85] | 1.34 ± 0.092
LNSYWVNQDSTYKYFEV [RPL15A] | 3.2 ± 0.058
LNTLLVTSADSNLKISL [SWI1] | 2.52 ± 0.08
LNVQVWHIEETGEWFSS [ITC1] | 2.41 ± 0.043
LPDEKSDAMSIDEEDKD [YCG1] | 3.06 ± 0.074
LPILPIQRLRLLREKQR [YOR098C/NUP1] | 2.02 ± 0.097
LPKFLTVQYVRFFWKRS [UBP6] | 1.19 ± 0.032
LPKVRIRTRRAAELLDK [DIS3] | 1.28 ± 0.072
LPKYQTIQYDPPETKLP [SNF5] | 3.01 ± 0.039
LPNIYPSTRCKLKLLRM [RPT2] | 1.59 ± 0.048

Sequence | protein stability index
LPNQFPLKIHRTPYLTS [SWI1] | 1.72 ± 0.038
LPSGVLSRGDDEVTIRR [SMC3] | 3.27 ± 0.068
LPVMESLDSCTAAFTAM [YJR042W/NUP85] | 2.37 ± 0.071
LQETLNKSTSSEAEYSK [YIL149C/MLP2] | 3.28 ± 0.068
LQFKSIREIDVAGGKKA [RPS7A] | 1.21 ± 0.077
LQKKVASILLALTQMDQ [RPB3] | 2.62 ± 0.066
LQQKQRDLILKKGEYAR [SMC3] | 2.71 ± 0.072
LQRASSKMGAPWCVKPE [ITC1] | 3.27 ± 0.066
LQRKDYTSIVQCCEFMT [YML103C/NUP188] | 1.9 ± 0.044
LQSNSKLASTLEKISSS [SMC4] | 2.53 ± 0.034
LQYTALTGSPNNPLVQK [ARP7] | 2.95 ± 0.045
LRKSELEYYAMLSKTKV [RPL30] | 2.82 ± 0.068
LRLLEVTDDDRLWLKKV [POP8] | 1.61 ± 0.071
LRNYLTPNVREEKQKSY [PUP1] | 3.27 ± 0.16
LRRVNARYVIATSTKVS [RPL6A] | 1.14 ± 0.035
LRWFELKPKLYYEQFRP [SIR3] | 3 ± 0.047
LSAPLSKELRAQYGIKA [RPL26A] | 1.87 ± 0.15
LSCEKITHYAVRGGNIE [RRI1] | 2.19 ± 0.047
LSDYNIQKESTLHLVLR [RPS31] | 2.58 ± 0.058
LSEEKEVIFTDVLKSQA [MCD1] | 2.77 ± 0.17
LSFSWAILLIINLTQTY [NUT1] | 2.06 ± 0.041
LSGGQKTVCAIALILAI [SMC3] | 2.74 ± 0.12
LSIAIVGKDTPFTIYDG [PRE5] | 3.07 ± 0.047
LSIRLTNQLKSLKGLQS [RPN8] | 1.24 ± 0.079
LSISVPSDVNIDVMKSQ [SNU114] | 2.78 ± 0.044

Sequence | protein stability index
LSKINAIQLDYSTANEY [RPN3] | 3.06 ± 0.062
LSKMENVNLDDYPDDSG [NAS6] | 3.05 ± 0.091
LSLKRTLTDILEDELYH [RPN4] | 3.15 ± 0.11
LSLMLESPNYCNALIHI [SRB4] | 1.75 ± 0.035
LSLTAFTKNEEKLLKEL [ITC1] | 2.44 ± 0.26
LSMRFQRETSGMIVISM [SRB8] | 1.97 ± 0.058
LSNFNADINLEESIRES [SIR3] | 3.4 ± 0.094
LSNLSKDIKANLSSNVN [YCS4] | 2.93 ± 0.046
LSNSNRFELHGDMTNSD [REC8] | 2.7 ± 0.2
LSQSSSYLETLTALGKE [MED2] | 2.44 ± 0.07
LSSAGAKSTVETFISSM [RIP1] | 2.69 ± 0.11
LSSGENRYAFSQPTNST [SMC4] | 2.85 ± 0.11
LSSHSSTNSNSKPSTAS [RPN4] | 2.86 ± 0.052
LSTTPTKSNRRVSHSDT [SIR4] | 3.25 ± 0.2
LSVEIGVLTDISSLIGG [NUT1] | 2.18 ± 0.12
LTAIPILLEPIYEVDIT [SNU114] | 2.19 ± 0.038
LTFHTLKKANIIYHTTF [YLR018C/POM34] | 1.98 ± 0.028
LTSSKSVIVSQFCAFDS [SIN4] | 1.64 ± 0.066
LTVSIKIALMNIPKPLN [RGR1] | 1.66 ± 0.032
LTYAQQQLNKQRQDFER [SNF6] | 2.6 ± 0.038
LVADGVFYAELNEFFTR [RPS3] | 3.28 ± 0.078
LVALKRNADELSSYQKK [PRE5] | 2.28 ± 0.033
LVDLVSHFSPDIKAAVD [ITC1] | 2.54 ± 0.05
LVEVEDEKIEAIKKKEK [SRB7] | 3.39 ± 0.17
